# Source: article PMC7878476, “Regulatory inter-domain interactions influence Hsp70 recruitment to the DnaJB8 chaperone” (Nature Communications, 2021)
# Where “and” joins values, the source holds several entries; their conditions need not be identical. Identical values can stand only once.
# B1: FITC-labeled JD_(1–82) of DnaJB8 (domain or fragment, human, UniProt Q8NHS0 1-82, looked up)
# chain: MANYYEVLGVQASASPEDIKKAYRKLALRWHPDKNPDNKEEAEKKFKLVSEAYEVLSDSKKRSLYDRAGCDSWRAGGGASTP
# modifications: FITC (labeled with 10× FITC-maleimide; site not stated)
# notes: DnaJB8, human, J-domain, residues 1-82; Same construct as m4, with the fluorescein label; also called JD_(1–82)-FITC; JD_(1–82)–FITC; source: E. coli BL-21 (DE3), purified (TALON, Superdex 200), labeled with FITC-maleimide, excess dye removed by Superdex 75
# Assays:
# [1] = molecular target: B1; assay: fluorescence polarisation; 0.2 μM FITC-JD_(1–82) with a titration of Hsp70 or CTD_(170–232) (150–0 μM) in 1× PBS, 1 mM TCEP, pH 7.4; one site-specific binding fit; details: both partners purified
# [2] = molecular target: the molecule itself; assay: cross-linking; DnaJB8–Clover held on anti-GFP nanobody/Ni-NTA beads, 1× PBS, 57 mM ADH + 36 mM DMTMM, 1 min at 37 °C; eluate analysed by MS and western blot
# [3] = molecular target: the molecule itself; assay: dynamic light scattering; 1.2 mg/mL in 1× PBS, 1 mM DTT, pH 7.4, room temperature, time course over about 20 h; 150 mM or 285 mM NaCl for full-length DnaJB8
# human Hsp70 (HspA1A) = molecular target: T1, human Hsp70 (HspA1A) (human, UniProt P0DMV8 1-641); assay: fluorescence polarisation; 0.2 μM FITC-JD_(1–82) with a titration of Hsp70 or CTD_(170–232) (150–0 μM) in 1× PBS, 1 mM TCEP, pH 7.4; one site-specific binding fit; details: both partners purified
# T1 construct: HspA1A (Hsp70), human; HspA1A gene cloned into pMCSG7; no tag cleavage is described; source: E. coli BL-21 (DE3), purified (TALON, HiTrap Q anion exchange, Superdex 200)
# T1 sequence (P0DMV8 whole entry): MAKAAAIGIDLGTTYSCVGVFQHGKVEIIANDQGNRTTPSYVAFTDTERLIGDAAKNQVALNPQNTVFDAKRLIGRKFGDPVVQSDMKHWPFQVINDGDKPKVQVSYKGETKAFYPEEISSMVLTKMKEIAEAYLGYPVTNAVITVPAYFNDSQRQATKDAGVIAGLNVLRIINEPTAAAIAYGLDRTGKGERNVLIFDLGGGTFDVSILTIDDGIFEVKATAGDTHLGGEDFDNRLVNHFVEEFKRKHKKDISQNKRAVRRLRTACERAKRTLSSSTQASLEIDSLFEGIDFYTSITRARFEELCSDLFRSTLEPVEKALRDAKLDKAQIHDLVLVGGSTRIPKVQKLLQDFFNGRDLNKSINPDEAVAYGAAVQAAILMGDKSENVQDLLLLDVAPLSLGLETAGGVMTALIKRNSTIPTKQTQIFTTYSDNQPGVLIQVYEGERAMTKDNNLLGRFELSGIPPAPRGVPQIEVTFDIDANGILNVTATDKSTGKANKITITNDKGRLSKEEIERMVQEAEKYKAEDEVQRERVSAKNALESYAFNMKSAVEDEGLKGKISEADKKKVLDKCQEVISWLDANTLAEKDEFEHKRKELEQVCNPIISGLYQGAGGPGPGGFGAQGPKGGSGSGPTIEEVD
binder,measurement,setting,value
"isolated C-terminal domain of DnaJB8, CTD_(170–232) (domain or fragment, human, UniProt Q8NHS0 170-232, looked up, source: E. coli BL-21 (DE3), purified (TALON, Superdex 200)) GGSSSGSSGFKSVMSSTEMINGHKVTTKRIVENGQERVEVEEDGQLKSVTVNGKEQLKWMDSK",Kd,[1],4.4 µM and 6.21 µM and 4.43 µM
"DnaJB8–mClover3 fusion protein (natural protein, human, UniProt Q8NHS0 1-232, looked up, also called DnaJB8–Clover; source: HEK293T polyclonal lentiviral cell line, isolated from lysate with His-tagged anti-GFP nanobody on Ni-NTA resin) MANYYEVLGVQASASPEDIKKAYRKLALRWHPDKNPDNKEEAEKKFKLVSEAYEVLSDSKKRSLYDRAGCDSWRAGGGASTPYHSPFDTGYTFRNPEDIFREFFGGLDPFSFEFWDSPFNSDRGGRGHGLRGAFSAGFGEFPAFMEAFSSFNMLGCSGGSHTTFSSTSFGGSSSGSSGFKSVMSSTEMINGHKVTTKRIVENGQERVEVEEDGQLKSVTVNGKEQLKWMDSK",binding result,[2],binds
"recombinant full-length DnaJB8 (wild type) (natural protein, human, UniProt Q8NHS0 1-232, looked up, pET-29b; no tag removal is described; also called WT DnaJB8; source: E. coli BL-21 (DE3), purified from the insoluble fraction (8 M guanidinium HCl, Ni-NTA), dialysed, lyophilised) MANYYEVLGVQASASPEDIKKAYRKLALRWHPDKNPDNKEEAEKKFKLVSEAYEVLSDSKKRSLYDRAGCDSWRAGGGASTPYHSPFDTGYTFRNPEDIFREFFGGLDPFSFEFWDSPFNSDRGGRGHGLRGAFSAGFGEFPAFMEAFSSFNMLGCSGGSHTTFSSTSFGGSSSGSSGFKSVMSSTEMINGHKVTTKRIVENGQERVEVEEDGQLKSVTVNGKEQLKWMDSK",binding result,[3],binds
B1,Kd,human Hsp70 (HspA1A),0.413 ± 0.057 µM
